Measured values reported in the RNAGym collection of RNA variant scans (doi:10.1093/molbev/msab373).

B1: Azoarcus group I ribozyme (parent)
chain: GUGCCUUGCGCCGGGAAACCACGCAAGGGAUGGUGUCAAAUUCGGCGAAACCUAAGCGCCCGCCCGGGCGUAUGGCAACGCCGAGCCAAGCUUCGGCGCCUGCGCCGAUGAAGGUGUAGAGACUAGACGGCACCCACCUAAGGCAAACGCUAUGGUGAAGGCAUAGUCCAGGGAGUGGCGAAAGUCACACAAACCGG

Variants of: B1
Assay: reverse-splicing fitness (ratio to wild type); higher = more active; in vitro selection; Mg2+ level not given
Outline: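 An in vitro group I ribozyme library with randomized positions was T7-transcribed and gel-purified. In triplicate, 10 pmol RNA in EPPS pH 7.5 was reacted with 50 pmoles of a 30-nt RNA substrate for 1 h at 37 °C across several added MgCl2 levels (1–48 mM), then stopped with EDTA. Products were reverse transcribed from a substrate-complementary primer, PCR-amplified and sequenced (HiSeq 4000). Fitness is a variant's read proportion after selection over that before, normalised to wild type.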

Row | Variant | reverse-splicing fitness
1 | GUGCCUUGCGCCGGGAAACCACGCAAGGGAUGGUGUCAAAUUCGGCGAAACCUAAGCGCCCGCCCGGGCGUAUGGCAACGCCGAGCCAAGCUUCGGCGCCUGCGCCGAUGUAGGUGUAGCGACUAGACGGCACCCACCUAAGGCGAACGGUAUGGUGAAGGCAUAGUCGAGGGAGGGGCGAAAGUCACACAAACCGG | 0.00555
2 | GUGCCUUGCGCCGGGAAACCACGCAAGGGAUGGUGUCAAAUUCGGCGAAACCUAAGCGCCCGCCCGGGCGUAUGGCAACGCCGAGCCAAGCUUCGGCGCCUGCGCCGAUGUAGGUGUAGCGACUAGACGGCACCCACCUAAGGCGAACGGUAUGGUGAAGGCAUAGUCGAGGGAGCGGCGAAAGUCACACAAACCGG | 0.0106
3 | GUGCCUUGCGCCGGGAAACCACGCAAGGGAUGGUGUCAAAUUCGGCGAAACCUAAGCGCCCGCCCGGGCGUAUGGCAACGCCGAGCCAAGCUUCGGCGCCUGCGCCGAUGUAGGUGUAGCGACUAGACGGCACCCACCUAAGGCGAACGGUAUGGUGAAGGCAUAGUCGAGGGAGAGGCGAAAGUCACACAAACCGG | 0.0094
4 | GUGCCUUGCGCCGGGAAACCACGCAAGGGAUGGUGUCAAAUUCGGCGAAACCUAAGCGCCCGCCCGGGCGUAUGGCAACGCCGAGCCAAGCUUCGGCGCCUGCGCCGAUGUAGGUGUAGCGACUAGACGGCACCCACCUAAGGCGAACGGUAUGGUGAAGGCAUAGUCUAGGGAGCGGCGAAAGUCACACAAACCGG | 0.0127
5 | GUGCCUUGCGCCGGGAAACCACGCAAGGGAUGGUGUCAAAUUCGGCGAAACCUAAGCGCCCGCCCGGGCGUAUGGCAACGCCGAGCCAAGCUUCGGCGCCUGCGCCGAUGUAGGUGUAGCGACUAGACGGCACCCACCUAAGGCGAACGGUAUGGUGAAGGCAUAGUCUAGGGAGAGGCGAAAGUCACACAAACCGG | 0.0118
6 | GUGCCUUGCGCCGGGAAACCACGCAAGGGAUGGUGUCAAAUUCGGCGAAACCUAAGCGCCCGCCCGGGCGUAUGGCAACGCCGAGCCAAGCUUCGGCGCCUGCGCCGAUGUAGGUGUAGCGACUAGACGGCACCCACCUAAGGCGAACGGUAUGGUGAAGGCAUAGUCUAGGGAGGGGCGAAAGUCACACAAACCGG | 0.00652
7 | GUGCCUUGCGCCGGGAAACCACGCAAGGGAUGGUGUCAAAUUCGGCGAAACCUAAGCGCCCGCCCGGGCGUAUGGCAACGCCGAGCCAAGCUUCGGCGCCUGCGCCGAUGUAGGUGUAGCGACUAGACGGCACCCACCUAAGGCGAACGUUAUGGUGAAGGCAUAGUCCAGGGAGUGGCGAAAGUCACACAAACCGG | 0.495
8 | GUGCCUUGCGCCGGGAAACCACGCAAGGGAUGGUGUCAAAUUCGGCGAAACCUAAGCGCCCGCCCGGGCGUAUGGCAACGCCGAGCCAAGCUUCGGCGCCUGCGCCGAUGUAGGUGUAGCGACUAGACGGCACCCACCUAAGGCGAACGUUAUGGUGAAGGCAUAGUCAAGGGAGUGGCGAAAGUCACACAAACCGG | 0.0113
9 | GUGCCUUGCGCCGGGAAACCACGCAAGGGAUGGUGUCAAAUUCGGCGAAACCUAAGCGCCCGCCCGGGCGUAUGGCAACGCCGAGCCAAGCUUCGGCGCCUGCGCCGAUGUAGGUGUAGCGACUAGACGGCACCCACCUAAGGCGAACGGUAUGGUGAAGGCAUAGUCAAGGGAGGGGCGAAAGUCACACAAACCGG | 0.00732
10 | GUGCCUUGCGCCGGGAAACCACGCAAGGGAUGGUGUCAAAUUCGGCGAAACCUAAGCGCCCGCCCGGGCGUAUGGCAACGCCGAGCCAAGCUUCGGCGCCUGCGCCGAUGUAGGUGUAGCGACUAGACGGCACCCACCUAAGGCGAACGGUAUGGUGAAGGCAUAGUCCAGGGAGAGGCGAAAGUCACACAAACCGG | 0.0125
11 | GUGCCUUGCGCCGGGAAACCACGCAAGGGAUGGUGUCAAAUUCGGCGAAACCUAAGCGCCCGCCCGGGCGUAUGGCAACGCCGAGCCAAGCUUCGGCGCCUGCGCCGAUGUAGGUGUAGCGACUAGACGGCACCCACCUAAGGCGAACGGUAUGGUGAAGGCAUAGUCCAGGGAGGGGCGAAAGUCACACAAACCGG | 0.00627
12 | GUGCCUUGCGCCGGGAAACCACGCAAGGGAUGGUGUCAAAUUCGGCGAAACCUAAGCGCCCGCCCGGGCGUAUGGCAACGCCGAGCCAAGCUUCGGCGCCUGCGCCGAUGUAGGUGUAGCGACUAGACGGCACCCACCUAAGGCGAACGGUAUGGUGAAGGCAUAGUCCAGGGAGCGGCGAAAGUCACACAAACCGG | 0.0344
13 | GUGCCUUGCGCCGGGAAACCACGCAAGGGAUGGUGUCAAAUUCGGCGAAACCUAAGCGCCCGCCCGGGCGUAUGGCAACGCCGAGCCAAGCUUCGGCGCCUGCGCCGAUGUAGGUGUAGCGACUAGACGGCACCCACCUAAGGCGAACGGUAUGGUGAAGGCAUAGUCGAGGGAGUGGCGAAAGUCACACAAACCGG | 0.00738
14 | GUGCCUUGCGCCGGGAAACCACGCAAGGGAUGGUGUCAAAUUCGGCGAAACCUAAGCGCCCGCCCGGGCGUAUGGCAACGCCGAGCCAAGCUUCGGCGCCUGCGCCGAUGUAGGUGUAGCGACUAGACGGCACCCACCUAAGGCGAACGGUAUGGUGAAGGCAUAGUCUAGGGAGUGGCGAAAGUCACACAAACCGG | 0.0226
15 | GUGCCUUGCGCCGGGAAACCACGCAAGGGAUGGUGUCAAAUUCGGCGAAACCUAAGCGCCCGCCCGGGCGUAUGGCAACGCCGAGCCAAGCUUCGGCGCCUGCGCCGAUGUAGGUGUAGCGACUAGACGGCACCCACCUAAGGCGAACGUUAUGGUGAAGGCAUAGUCAAGGGAGAGGCGAAAGUCACACAAACCGG | 0.0143
